Experimental data: article PMC3528108
Read-outs that look alike come from different tables or passages of the source.

Legend:
GST-TRF2 [1] = target: T1, GST-TRF2 (human, UniProt Q15554 1-542); assay: ELISA
GST-TRF2 [2] = target: T1, GST-TRF2; assay: ELISA; remark: listed apart in the source

T1 sequence (Q15554 whole entry): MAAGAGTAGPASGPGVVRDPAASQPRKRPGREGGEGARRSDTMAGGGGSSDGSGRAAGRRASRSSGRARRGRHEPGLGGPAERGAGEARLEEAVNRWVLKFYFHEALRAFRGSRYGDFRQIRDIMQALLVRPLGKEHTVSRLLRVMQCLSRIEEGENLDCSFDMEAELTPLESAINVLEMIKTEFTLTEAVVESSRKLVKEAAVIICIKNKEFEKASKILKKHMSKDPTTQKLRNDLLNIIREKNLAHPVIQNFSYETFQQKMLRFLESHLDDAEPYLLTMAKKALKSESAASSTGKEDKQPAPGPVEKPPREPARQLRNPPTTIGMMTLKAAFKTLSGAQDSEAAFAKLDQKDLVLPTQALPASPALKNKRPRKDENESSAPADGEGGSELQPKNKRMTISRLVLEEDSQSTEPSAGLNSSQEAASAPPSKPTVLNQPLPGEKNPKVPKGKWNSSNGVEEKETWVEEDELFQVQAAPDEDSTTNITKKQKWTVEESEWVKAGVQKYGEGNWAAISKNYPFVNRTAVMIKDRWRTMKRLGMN

Binder: AGGGGGCCGUGGGGUGGGAGCUGGGG (structured_RNA) [BCL2 RNA G-quadruplex]
- binding result (GST-TRF2 [1]): binds

Binder: AGGGAGGGGCGGGUCUGGG (structured_RNA) [NRAS RNA G-quadruplex]
- binding result (GST-TRF2 [1]): binds

Binder: UUACCGUUACCGUUACCGUUACCG (ssRNA) [TERRA-mut]
- binding result (GST-TRF2 [2]): no binding
